Here are results for six substances from PMC6737238.

Common to all, as to test: EMSA
Common to all, as to settings: EMSA: 0.4 nM biotinylated probe, 10 mM Tris-HCl pH 7.5, 1 mM DTT, 10 mM MgCl2, 400 mM KCl, 0.05% NP-40, 70C 10 min; 5% PAGE, 0.5x TBE
(In general: In EMSA bound probe runs differently from free probe, usually more slowly.)

Data set [1] has as its target T1, TkTrpY (TK1227 protein) (Thermococcus kodakarensis KOD1) (UniProt Q5JGI5).
T1 sequence: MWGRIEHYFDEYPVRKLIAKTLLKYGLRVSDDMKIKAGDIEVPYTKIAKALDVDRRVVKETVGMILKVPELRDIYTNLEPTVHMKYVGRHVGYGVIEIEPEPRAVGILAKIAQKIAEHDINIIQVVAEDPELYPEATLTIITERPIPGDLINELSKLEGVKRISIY

Data set [2] deals with T2, TK0063 protein (Thermococcus kodakarensis KOD1) (UniProt Q5JEG2).
T2 sequence: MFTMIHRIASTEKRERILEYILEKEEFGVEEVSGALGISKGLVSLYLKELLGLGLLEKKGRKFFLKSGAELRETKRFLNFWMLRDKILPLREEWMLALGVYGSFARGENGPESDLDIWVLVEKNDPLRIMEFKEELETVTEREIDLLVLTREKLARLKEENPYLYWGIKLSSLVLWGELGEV

Data set [3] deals with T3, TK0142 protein (Thermococcus kodakarensis KOD1) (UniProt Q5JFH4).
T3 sequence: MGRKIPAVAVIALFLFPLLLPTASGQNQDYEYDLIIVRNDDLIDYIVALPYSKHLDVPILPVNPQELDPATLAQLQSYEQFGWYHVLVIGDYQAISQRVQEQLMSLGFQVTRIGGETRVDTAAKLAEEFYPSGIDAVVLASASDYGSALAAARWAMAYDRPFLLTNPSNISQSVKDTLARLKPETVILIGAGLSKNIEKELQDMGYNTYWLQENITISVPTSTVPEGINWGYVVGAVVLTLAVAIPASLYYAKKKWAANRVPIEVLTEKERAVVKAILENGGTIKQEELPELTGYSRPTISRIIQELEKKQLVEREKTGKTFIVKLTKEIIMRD

The target of data set [4] is T4, TK0169 protein (Thermococcus kodakarensis KOD1) (UniProt Q5JFL2).
T4 sequence: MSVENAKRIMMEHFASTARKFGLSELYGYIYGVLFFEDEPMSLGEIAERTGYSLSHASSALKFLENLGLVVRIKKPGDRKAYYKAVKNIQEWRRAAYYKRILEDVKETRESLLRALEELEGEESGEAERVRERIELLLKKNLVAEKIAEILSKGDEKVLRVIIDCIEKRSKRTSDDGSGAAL

The target in data set [5] is T5, TK0271 protein (IVT) (Thermococcus kodakarensis KOD1) (UniProt Q5JFW7).
T5 sequence: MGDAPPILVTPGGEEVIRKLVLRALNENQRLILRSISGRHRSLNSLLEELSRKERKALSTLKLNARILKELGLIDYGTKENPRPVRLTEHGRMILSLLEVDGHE

In data set [6] the target is T6, TK0888 protein (Thermococcus kodakarensis KOD1) (UniProt Q5JI32).
T6 sequence: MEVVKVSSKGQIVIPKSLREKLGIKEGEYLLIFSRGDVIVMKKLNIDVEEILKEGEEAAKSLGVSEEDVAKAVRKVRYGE

For data set [7], the target named is T7, TK1210 protein (Thermococcus kodakarensis KOD1) (UniProt Q5JGG7).
T7 sequence: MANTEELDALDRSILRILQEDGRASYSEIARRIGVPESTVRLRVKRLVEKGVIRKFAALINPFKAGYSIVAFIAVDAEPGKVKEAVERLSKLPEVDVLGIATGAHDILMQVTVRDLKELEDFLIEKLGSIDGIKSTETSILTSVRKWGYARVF

Data set [8] addresses T8, TK1227 protein (IVT) (Thermococcus kodakarensis KOD1) (UniProt Q5JGI5).
T8 sequence: T1 sequence

Data set [9] deals with T9, TK1272 protein (Thermococcus kodakarensis KOD1) (UniProt Q5JGN9).
T9 sequence: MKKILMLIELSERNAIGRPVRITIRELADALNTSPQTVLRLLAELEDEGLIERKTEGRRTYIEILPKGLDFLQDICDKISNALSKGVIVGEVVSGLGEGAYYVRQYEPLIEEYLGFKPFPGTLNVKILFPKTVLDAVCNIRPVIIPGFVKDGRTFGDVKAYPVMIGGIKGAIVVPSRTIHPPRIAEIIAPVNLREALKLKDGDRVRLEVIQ

The target of data set [10] is T10, TK1339 protein (Thermococcus kodakarensis KOD1) (UniProt Q5JGU9).
T10 sequence: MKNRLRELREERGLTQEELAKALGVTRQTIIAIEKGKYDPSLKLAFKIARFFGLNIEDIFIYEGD

In data set [11] the target is T11, TK1489 protein (Thermococcus kodakarensis KOD1) (UniProt Q5JJD9).
T11 sequence: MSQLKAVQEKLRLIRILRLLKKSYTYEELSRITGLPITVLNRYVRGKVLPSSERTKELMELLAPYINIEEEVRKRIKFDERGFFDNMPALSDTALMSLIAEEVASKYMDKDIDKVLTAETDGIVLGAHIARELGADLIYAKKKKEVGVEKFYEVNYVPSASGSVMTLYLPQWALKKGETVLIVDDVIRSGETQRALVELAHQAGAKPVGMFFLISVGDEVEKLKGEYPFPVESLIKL

In data set [12] the target is T12, TK1881 protein (Thermococcus kodakarensis KOD1) (UniProt Q5JEN6).
T12 sequence: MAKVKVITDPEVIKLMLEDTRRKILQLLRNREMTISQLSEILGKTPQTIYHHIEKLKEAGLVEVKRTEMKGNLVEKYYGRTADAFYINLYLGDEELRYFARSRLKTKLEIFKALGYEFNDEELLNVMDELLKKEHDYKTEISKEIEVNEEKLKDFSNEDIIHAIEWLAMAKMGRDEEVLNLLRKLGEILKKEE

In data set [13] the target is T13, TK1955 protein (Thermococcus kodakarensis KOD1) (UniProt Q5JDN7).
T13 sequence: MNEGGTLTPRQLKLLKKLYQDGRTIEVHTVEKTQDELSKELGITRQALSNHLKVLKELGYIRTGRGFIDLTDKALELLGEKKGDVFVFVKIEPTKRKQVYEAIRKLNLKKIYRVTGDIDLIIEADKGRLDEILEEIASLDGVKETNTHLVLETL

Data set [14] has as its target T14, TK2190 protein (Thermococcus kodakarensis KOD1) (UniProt Q5JHK1).
T14 sequence: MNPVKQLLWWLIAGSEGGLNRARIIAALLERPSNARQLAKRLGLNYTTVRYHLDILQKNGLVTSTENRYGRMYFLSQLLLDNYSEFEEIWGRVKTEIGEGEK

Data set [15] has as its target T15, TK2229 protein (Thermococcus kodakarensis KOD1) (UniProt Q5JHP9).
T15 sequence: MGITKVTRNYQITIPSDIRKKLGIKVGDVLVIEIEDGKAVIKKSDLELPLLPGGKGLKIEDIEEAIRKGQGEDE

In data set [16] the target is T16, Tar (TK0271 protein) (Thermococcus kodakarensis KOD1) (UniProt Q5JFW7).
T16 sequence: T5 sequence

Turning to “GACCACCCGCTCAGAAAAGGACGTCGTAAGGACAAGTACACCGTTATTCTCTACCAGGCAACCGTACGAACTATTCAAAGTTCACCCTTTGAAGAAAGGCAAACATTTTTGTTTAACAAAAACACTTTTGTTAGCGCAAACTATTTAAACAACCGTTGTATATCACAGATGGTGATATATATGGTTGAGC (double strand) [TK0705 (GAPN) promoter]”, the binding entry in data set [1] is recorded as “binds more weakly”.
As a reminder, the Kd is the concentration at which binding is half-saturated. A high value points to a looser complex. For the substance “GACTTCGGCTTTCTGATGGTCGGAAGGGACGTGGAAAATGCGAACGAAGCGATAAAAATGTTTTTGGAGGAGGTTAAACGAGGGCCTTAACGCCCTCTCGGTCTTTTTAGCTACTCCCTTGGACACCTCAGCATGTCCAAAGCCTTATATCCCAACTCCCCCTTTTGACACCGGTGAGTTCAAATGGGTGATGGTTTTTGGATTAAGC (double strand) [trp promoter (TK0252)]”, the binding result in [2], in data set [3], in data set [4], in data set [5], in data set [6] and in data set [7] was “binds” in each case. Also, the binding result in data set [8], in data set [9], in data set [10], in [11], in data set [12] and in data set [13] was “binds” throughout. For the same substance, the binding result in data set [14], in data set [15] and in [16] was “binds” in each case. Also, in data set [16], the Kd is 5 nM.
Turning to “GCTACTTCCATCCTCCTCTGGAGAAGCTGGAGAATTTCCCGGTCAATCTCGTCTATCCTTCTCCTCAGAATGGCAAGTTCTACAAGATCAGGACTCGATATTGGCGGGACATCACCGTCACCGTTTTGAGCTTGAAGTTCGAAGATTTAACCTTTTGGACAGGTTCACCTAACCATCCCCTCCCAGGCCCTCCTCCTCAGGAG (double strand) [tyr-phe promoter (TK0261)]”, the Kd result in [16] is “binds”.
On the same count and under the same terms, the value for “GGACGCCTGTTTGTCAAATCGACAAAAATACGCCAGTTTTCACACTGATTTTTAACAGATTGATGAGATGGACGTCCTTTTTTGGGAATTGGACAGGCAAACCTGGCGAATAGTTTAAATAGGGTTGCTGATTCATCCGTCTCCGGTGATCGGTGATGTCCCGCCAATTTATGAAGTCTTCAAACCAGGTGATGTCCCGCCAATGGGTGATGC (double strand) [aro promoter (TK0271)]” was “binds”.
As for “TGCGGGCCATCATCATCACCCAATACCTTTGATGTGGGTAAAACATGGGGAGGTTATATACTTTATGTCCCTCAGGGACTTGGCAATGAAACTTTTAAGAATTTCGTCCGATTCTAGAATCAAACTGTAAAAGACCCATATTTTACAATAGCAGCCAGGAAAGAATATTAAACAGAAAATAAGGGATTAAATGCCGTTATCCCCA (double strand) [TK1899 (radA) promoter]”, in data set [16], the binding entry was “binds more weakly”.
Turning to trp promoter (TK0252), the dissociation constant Kd in data set [16] was 5 nM.
